Data published in the supplement of paper PMC10567573.

B1: TRIB1 (parent)
chain: SYVRSRKRLREEEAARLFKQIVSA

Variants of: B1
Assay: protein stability index of a GFP-peptide fusion (GPS, HEK-293T) (PSI 1-6); higher = more stable
Conditions: c terminus: a fixed tail appended
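Also: lentivirally expressed fusions sorted by FACS into six bins by GFP to DsRed ratio, PSI derived from sequencing read proportions per bin multiplied by bin number.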

First: L17H
Second: L17D
The protein stability index of the first is lower: 2.48 for the first, 3.46 for the second.

First: L17G
Second: L17P
The protein stability index of the first is lower: 3.72 for the first, 3.97 for the second.

First: L17S
Second: L17Y
The protein stability index of the first is higher: 2.62 for the first, 2.61 for the second.

Compared with L17F, L17M is higher in protein stability index: 1.6 for the first, 2.03 for the second.

Compared with L17Q, L17W is higher in protein stability index: 2.1 for the first, 2.24 for the second.

Compared with L17R, L17A is higher in protein stability index: 2.1 for the first, 2.49 for the second.

Going from L17C to L17E, the protein stability index rises from 2.52 to 3.46.

Going from L17T to L17K, the protein stability index falls from 2.87 to 2.61.

Going from L17V to L17N, the protein stability index rises from 2.98 to 3.21.

Going from Q20N to Q20H, the protein stability index falls from 2.64 to 1.54.

Compared with Q20I, Q20S is higher in protein stability index: 1.43 for the first, 2.27 for the second.

First: Q20F
Second: Q20W
The protein stability index of the first is higher: 1.61 for the first, 1.46 for the second.

Compared with Q20D, Q20L is lower in protein stability index: 2.08 for the first, 1.32 for the second.

Going from Q20K to Q20A, the protein stability index falls from 2.15 to 1.8.

Going from Q20E to Q20M, the protein stability index falls from 2.4 to 2.17.

First: Q20C
Second: Q20T
The protein stability index of the first is lower: 1.43 for the first, 2.37 for the second.

First: Q20Y
Second: Q20V
The protein stability index of the first is higher: 1.13 for the first, 1.04 for the second.

Compared with Q20P, Q20R is lower in protein stability index: 3.03 for the first, 1.95 for the second.

First: Q20G
Second: I21L
The protein stability index of the first is higher: 2.52 for the first, 1.39 for the second.

Compared with I21H, I21T is higher in protein stability index: 2.4 for the first, 3.48 for the second.

Compared with I21Y, I21N is higher in protein stability index: 2.06 for the first, 4.01 for the second.

Going from I21E to I21D, the protein stability index rises from 3.23 to 4.08.

Compared with I21P, I21Q is lower in protein stability index: 3.76 for the first, 2.06 for the second.

Going from I21R to I21S, the protein stability index falls from 3.8 to 3.66.

Going from I21V to I21K, the protein stability index rises from 2.34 to 3.27.

Going from I21F to I21W, the protein stability index rises from 2.2 to 3.98.

Going from I21M to F18P, the protein stability index rises from 2.47 to 3.99.

Going from F18Q to F18E, the protein stability index falls from 4.07 to 3.02.

Going from F18H to F18V, the protein stability index falls from 4.19 to 2.86.

Compared with F18I, F18A is higher in protein stability index: 2.06 for the first, 3.44 for the second.

First: F18R
Second: F18D
The protein stability index of the first is lower: 3.74 for the first, 3.83 for the second.

Compared with F18S, F18W is lower in protein stability index: 3.42 for the first, 2.56 for the second.

First: F18L
Second: F18Y
The protein stability index of the first is lower: 1.52 for the first, 2.08 for the second.

Going from F18C to F18G, the protein stability index rises from 3.31 to 3.92.

First: F18M
Second: F18T
The protein stability index of the first is lower: 3.34 for the first, 3.84 for the second.

Going from F18N to R16A, the protein stability index falls from 3.1 to 1.9.

First: R16Y
Second: R16L
The protein stability index of the first is higher: 2.32 for the first, 1.93 for the second.

Going from R16T to R16K, the protein stability index falls from 2.57 to 2.31.

First: R16Q
Second: R16V
The protein stability index of the first is higher: 2.63 for the first, 2.53 for the second.

Going from R16E to R16F, the protein stability index falls from 2.87 to 2.66.

First: R16G
Second: R16P
The protein stability index of the first is lower: 2.41 for the first, 3.39 for the second.

First: R16C
Second: R16I
The protein stability index of the first is higher: 2.01 for the first, 1.37 for the second.

Going from R16N to R16S, the protein stability index falls from 2.58 to 1.72.

First: R16D
Second: R16M
The protein stability index of the first is lower: 2.17 for the first, 2.52 for the second.

Compared with R16H, A15V is lower in protein stability index: 2.2 for the first, 1.84 for the second.

First: A15Y
Second: A15N
The protein stability index of the first is lower: 1.71 for the first, 2.48 for the second.

Compared with A15E, A15R is higher in protein stability index: 2.56 for the first, 2.62 for the second.

First: A15P
Second: A15G
The protein stability index of the first is higher: 3.43 for the first, 2.56 for the second.

Compared with A15T, A15F is lower in protein stability index: 2.08 for the first, 1.59 for the second.

Compared with A15Q, A15W is lower in protein stability index: 2.15 for the first, 1.74 for the second.

First: A15M
Second: A15D
The protein stability index of the first is higher: 2.68 for the first, 2.32 for the second.

First: A15H
Second: A15S
The protein stability index of the first is lower: 2.08 for the first, 2.36 for the second.

First: A15I
Second: A15C
The protein stability index of the first is lower: 1.4 for the first, 1.93 for the second.

Compared with A15K, A15L is higher in protein stability index: 1.96 for the first, 2.05 for the second.

Compared with K19E, K19D is higher in protein stability index: 2.06 for the first, 2.25 for the second.

First: K19N
Second: K19R
The protein stability index of the first is lower: 1.7 for the first, 1.85 for the second.

Going from K19Y to K19L, the protein stability index falls from 2.02 to 1.33.

Going from K19T to K19Q, the protein stability index rises from 2.04 to 2.21.

Going from K19H to K19F, the protein stability index rises from 1.69 to 2.71.

First: K19M
Second: K19I
The protein stability index of the first is lower: 2.43 for the first, 2.91 for the second.

First: K19P
Second: K19S
The protein stability index of the first is higher: 2.81 for the first, 2.31 for the second.

First: K19C
Second: A14E
The protein stability index of the first is lower: 2.34 for the first, 2.85 for the second.

First: A14F
Second: A14M
The protein stability index of the first is higher: 2.34 for the first, 1.81 for the second.

First: A14Y
Second: A14T
The protein stability index of the first is lower: 2.18 for the first, 2.83 for the second.

Compared with A14G, A14P is lower in protein stability index: 3.38 for the first, 2.56 for the second.

Compared with A14C, A14S is higher in protein stability index: 2.24 for the first, 3.24 for the second.

First: A14Q
Second: A14K
The protein stability index of the first is higher: 2.99 for the first, 2.64 for the second.

First: A14V
Second: A14R
The protein stability index of the first is lower: 2.09 for the first, 3.17 for the second.

Compared with A14H, A14N is lower in protein stability index: 2.26 for the first, 1.89 for the second.

Going from A14I to A14W, the protein stability index falls from 2.4 to 2.11.

Going from A14D to A14L, the protein stability index rises from 1.59 to 2.03.

Compared with V22D, V22S is lower in protein stability index: 3.22 for the first, 2.62 for the second.

First: V22R
Second: V22I
The protein stability index of the first is higher: 3.3 for the first, 2.94 for the second.

Going from V22M to V22N, the protein stability index rises from 2.45 to 2.86.

Compared with V22F, V22Q is higher in protein stability index: 1.83 for the first, 3.34 for the second.

First: V22P
Second: V22C
The protein stability index of the first is higher: 3.72 for the first, 2.13 for the second.

First: V22H
Second: V22L
The protein stability index of the first is lower: 2.23 for the first, 2.54 for the second.

Going from V22A to V22G, the protein stability index rises from 2.58 to 3.11.

First: E13R
Second: E13T
The protein stability index of the first is higher: 2.85 for the first, 1.74 for the second.

Compared with E13L, E13S is lower in protein stability index: 2.54 for the first, 2.05 for the second.

Going from E13M to E13V, the protein stability index falls from 2.21 to 1.65.

Compared with E13Y, E13K is higher in protein stability index: 2.14 for the first, 2.94 for the second.

Going from E13N to E13Q, the protein stability index falls from 2.53 to 2.5.

E13P gave a protein stability index of 2.41.
